Laboratory results taken from IntAct's records for PubMed 14527422.

B1: BTB/POZ domain-containing protein 3 (Schizosaccharomyces pombe (strain ATCC 38366 / 972)), Q10225 (parent)
chain: MASQDQNTGTTHVELQGGENSKKLFSKYDLWSKAMDEKKLSSSLFTVNDTQEFLELCEACRRGDLEVVKSLVENYNTPINQVDQFDYSPLVLASLCGHEPVVKFLLENGALCERDTFQGERCLYGALNDNIRRMLLSYDITKAIDESQPYASHITSLLSNSALHFTTDIVFAGQYGRVFAHKFYLAARSSYFKSKFSKLGPSEHEIEVKHFAKEFESILRYLYLDTNAVFTKQYNNALLSIGKKFQLNDFIALYEKDREQLHSRDWKKIQLAKTQNDLGEFLDYIISNYKVPIESLNQPSDQYSFHDAYLQSYTHRYPVHRAIMCRCEYFLDMLAGPFLESNQELPVLSLPFSSSVVEIVLKFLYTDKTDIAPELALDVVYVADMLSLDKDRSLKSLASIVITKQEEPIDSIYDILRTAWDTSTPRLEQYASEYMANHLEHLIDDPEFCELVKESADRILQRQETDTIELIDDIRYFLSKRFGIYHEDLCIDGVVDTLTPYESEYNQKMEMIDDLLDKLELQA
partner: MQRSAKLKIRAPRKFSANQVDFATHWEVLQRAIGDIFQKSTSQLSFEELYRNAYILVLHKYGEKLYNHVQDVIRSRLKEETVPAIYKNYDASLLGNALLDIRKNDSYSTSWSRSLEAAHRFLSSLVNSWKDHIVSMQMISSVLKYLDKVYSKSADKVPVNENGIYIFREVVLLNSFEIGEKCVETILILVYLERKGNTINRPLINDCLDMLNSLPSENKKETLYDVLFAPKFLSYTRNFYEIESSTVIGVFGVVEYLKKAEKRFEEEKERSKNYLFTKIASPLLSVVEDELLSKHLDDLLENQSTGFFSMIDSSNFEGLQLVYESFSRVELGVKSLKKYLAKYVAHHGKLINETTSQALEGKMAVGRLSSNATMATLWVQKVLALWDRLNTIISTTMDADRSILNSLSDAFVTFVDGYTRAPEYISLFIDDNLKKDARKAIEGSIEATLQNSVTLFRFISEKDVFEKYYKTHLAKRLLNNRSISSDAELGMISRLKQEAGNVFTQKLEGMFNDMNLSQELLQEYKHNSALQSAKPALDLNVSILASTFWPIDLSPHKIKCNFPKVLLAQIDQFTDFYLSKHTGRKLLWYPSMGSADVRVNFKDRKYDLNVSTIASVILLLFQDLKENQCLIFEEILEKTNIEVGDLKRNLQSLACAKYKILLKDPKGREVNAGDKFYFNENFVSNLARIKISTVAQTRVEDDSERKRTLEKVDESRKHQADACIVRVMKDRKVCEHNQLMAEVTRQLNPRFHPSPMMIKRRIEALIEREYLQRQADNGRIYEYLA
B2: Cullin-3 (Schizosaccharomyces pombe (strain ATCC 38366 / 972)), Q09760 (parent)
chain: B1 partner
partner: B1 chain

Variants of: B1
Settings: with cul3_schpo cul3, Q09760

effect of a mutation on the interaction | Variant
disrupting interaction | D168A
disrupting interaction | H181L

Variants of: B2
Settings: with btb3_schpo btb3, Q10225

effect of a mutation on the interaction | Variant
disrupting interaction | Y50G
